Results taken from patent publication US20050276757.

Tests used:
[1] = target: Flag-tagged Abi-1 expressed from pCMV-Flag-Abi1, Q8IZP0
[2] = target: p120 catenin expressed from a transfected plasmid (exogenous p120, HA-tagged in Example 1)

Chain of Flag-tagged Abi-1 expressed from pCMV-Flag-Abi1, Q8IZP0 (Q8IZP0 whole entry, looked up): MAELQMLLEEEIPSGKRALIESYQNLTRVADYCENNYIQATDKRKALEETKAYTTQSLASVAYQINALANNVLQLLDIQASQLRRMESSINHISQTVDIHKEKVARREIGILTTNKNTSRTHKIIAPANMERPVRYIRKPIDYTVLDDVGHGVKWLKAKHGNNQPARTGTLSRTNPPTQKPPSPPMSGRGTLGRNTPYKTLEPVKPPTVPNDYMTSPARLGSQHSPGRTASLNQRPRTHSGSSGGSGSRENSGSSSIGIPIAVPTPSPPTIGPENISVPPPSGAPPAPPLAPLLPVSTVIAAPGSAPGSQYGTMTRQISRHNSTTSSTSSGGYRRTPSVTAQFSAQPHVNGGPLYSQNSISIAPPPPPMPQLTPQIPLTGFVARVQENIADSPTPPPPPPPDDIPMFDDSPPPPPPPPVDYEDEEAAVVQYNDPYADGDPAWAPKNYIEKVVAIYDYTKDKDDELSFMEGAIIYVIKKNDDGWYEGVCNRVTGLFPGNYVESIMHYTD

B1: kinase domain of ZC3 fused to GST (protein)
chain: MGDPAPARSLDDIDLSALRDPAGIFELVEVVGNGTYGQVYKGRHVKTGQLAAIKVMDVTEDEEEEIKQEINMLKKYSHHRNIATYYGAFIKKSPPGNDDQLWLVMEFCGAGSVTDLVKNTKGNALKEDCIAYICREILRGLAHLHAHKVIHRDIKGQNVLLTENAEVKLVDFGVSAQLDRTVGRRNTFIGTPYWMAPEVIACDENPDATYDYRSDIWSLGITAIEMAEGAPPLCDMHPMRALFLIPRNPPPRLKSKKWSKKFIDFIDTCLIKTYLSRPPTEQLLKFPFIRDQPTERQVRIQLKDHIDRSRKKRGEKEETE
in vitro phosphorylation (32P-ATP, autoradiography) (Myelin Basic Protein): MBP is known to be a good in vitro substrate for ZC3 and is indeed strongly phosphorylated
in vitro phosphorylation (32P-ATP, autoradiography) [1]: A strongly phosphorylated band corresponding to Abi-1 appears in the sample containing immunoprecipitated Abi-1 and GST-ZC3KD

B2: purified GST-ZC1 kinase domain (protein)
chain: MANDSPAKSLVDIDLSSLRDPAGIFELVEVVGNGTYGQVYKGRHVKTGQLAAIKVMDVTEDEEEEIKLEINMLKKYSHHRNIATYYGAFIKKSPPGHDDQLWLVMEFCGAGSITDLVKNTKGNTLKEDWIAYISREILRGLAHLHIHHVIHRDIKGQNVLLTENAEVKLVDFGVSAQLDRTVGRRNTFIGTPYWMAPEVIACDENPDATYDYRSDLWSCGITAIEMAEGAPPLCDMHPMRALFLIPRNPPPRLKSKKWSKKFFSFIEGCLVKNYMQRPSTEQLLKHPFIRDQPNERQVRIQLKDHIDRTRKKRGEKDETEYEYSGSEE
in vitro phosphorylation (32P-ATP, autoradiography; gel mobility shift) [2]: added purified recombinant ZC1 enzyme induced phosphorylation of p120
